Assay results taken from publication PMC12431651.
Like-named read-outs stand apart in the source and are kept apart here.

Legend:
[1] = molecular target: MED25 ACID (Homo sapiens) (UniProt Q71SY5); settings: cited from earlier work
[2] = molecular target: MED25 ACID (Homo sapiens) (UniProt Q71SY5); settings: cited from earlier work; remark: listed apart in the source
[3] = molecular target: His-tagged MED25 ACID (aa 389–543) (human) (UniProt Q71SY5); assay: BLI; His-MED25 ACID (1 µM) captured on Ni-NTA biosensors, NS1 proteins as analytes in 2-fold dilutions; 20 mM Tris pH 8.0, 200 mM NaCl, 1 mM TCEP, 0.05% Tween, 25°C; global fit, 1:1 model for NS1, 2:1 heterogeneous model for NS1Δα3 and the point mutants
Sequence of His-tagged MED25 ACID (aa 389–543) (human) (Q71SY5 389-543): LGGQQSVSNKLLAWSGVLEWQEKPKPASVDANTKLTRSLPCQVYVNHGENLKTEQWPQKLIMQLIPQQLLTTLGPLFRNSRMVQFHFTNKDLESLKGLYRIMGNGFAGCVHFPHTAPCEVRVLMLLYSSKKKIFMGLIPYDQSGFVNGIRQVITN

[4] = molecular target: MED25 ACID (Homo sapiens) (UniProt Q71SY5); settings: cited from earlier work; remark: listed apart in the source
[5] = molecular target: MED25 ACID (Homo sapiens) (UniProt Q71SY5); settings: cited from earlier work; remark: listed apart in the source
[6] = molecular target: MED25 ACID (Homo sapiens) (UniProt Q71SY5); settings: cited from earlier work; remark: listed apart in the source
[7] = molecular target: MED25 ACID (Homo sapiens) (UniProt Q71SY5); assay: ITC; settings: cited from earlier work
[8] = molecular target: MED25 ACID (H1 interface) (Homo sapiens) (UniProt Q71SY5); assay: NMR; settings: cited from earlier work
Sequence of MED25 ACID (H1 interface) (Homo sapiens) (Q71SY5 389-543): as above

[9] = molecular target: MED25 ACID (Homo sapiens) (UniProt Q71SY5); assay: NMR; settings: cited from earlier work
[10] = molecular target: MED25 ACID (Homo sapiens) (UniProt Q71SY5); settings: cited from earlier work; remark: listed apart in the source
[11] = molecular target: MED25 ACID (Homo sapiens) (UniProt Q71SY5); settings: cited from earlier work; remark: listed apart in the source
[12] = molecular target: MED25 ACID (Homo sapiens) (UniProt Q71SY5); settings: cited from earlier work; remark: listed apart in the source

Sequence of MED25 ACID (Homo sapiens) (Q71SY5 389-543): as above
Sequence of p53 TAD2 (P04637 38-61): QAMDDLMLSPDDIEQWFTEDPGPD
Sequence of p53 TAD (P04637 1-61): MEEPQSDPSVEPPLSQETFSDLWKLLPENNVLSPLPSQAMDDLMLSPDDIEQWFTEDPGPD
Sequence of ATF6α TAD (P18850 40-66): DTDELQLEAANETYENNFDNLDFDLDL
Sequence of ERM TAD (P41161 38-68): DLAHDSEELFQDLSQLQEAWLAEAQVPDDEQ

Substance	Kd1 (binding mode 1) [3] [nM]	Kd2 (binding mode 2) [3] [nM]	ka1 (binding mode 1) [3] [M⁻¹ s⁻¹]	ka2 (binding mode 2) [3] [M⁻¹ s⁻¹]	kdis1 (binding mode 1) [3] [s⁻¹]	kdis2 (binding mode 2) [3] [s⁻¹]	other results
VP16 TAD1 (from UniProt P06492)	–	–	–	–	–	–	Kd [1]: 1600 nM; Kd [2]: 1600 nM
NS1 K112A (natural protein)	68.1	7.5	160000	140000	0.011	0.0011	–
p53 TAD2 (from UniProt P04637)	–	–	–	–	–	–	Kd [4]: 8100 nM
ERM TAD (from UniProt P41161)	–	–	–	–	–	–	Kd [5]: 600 nM
NS1 (from UniProt P0DOE8)	–	–	–	–	–	–	Kd [6]: 20 nM; Kd [7]: 15 nM
NS1 M122A (natural protein)	42.3	9.4	210000	120000	0.009	0.0011	–
NS1 F56A (natural protein)	333	72	130000	20000	0.043	0.0014	–
NS1 α3 peptide (from UniProt P0DOE8)	–	–	–	–	–	–	Kd [8]: 500000 nM; Kd [9]: 10000 nM
ATF6α TAD (from UniProt P18850)	–	–	–	–	–	–	Kd [10]: 500 nM
p53 TAD (from UniProt P04637)	–	–	–	–	–	–	Kd [11]: 800 nM
NS1Δα3 (NS1 aa 1–116) (domain or fragment)	615	850	80000	3000	0.05	0.0024	–
NS1 I54A (natural protein)	71.2	28.3	200000	80000	0.014	0.0023	–
RSV NS1, full-length wild type (aa 1–139) (natural protein)	–	–	–	–	–	–	Kd [3]: 16.5 nM; koff [3]: 0.002 s⁻¹; kon [3]: 120000 M⁻¹ s⁻¹
VP16 TAD (from UniProt P06492)	–	–	–	–	–	–	Kd [12]: 50 nM
NS1 E110A (natural protein)	1630	1320	120000	3000	0.19	0.0034	–
